Test results as given in article PMC11035800.

Assays:
[1] = biological target: RUNX1 (UniProt Q01196); assay: anti-MYC IP, anti-RUNX1 blot; details: reference: MYC-CARM1 wild type
[2] = biological target: CARM1 (UniProt Q86X55); assay: anti-HA co-IP, anti-MYC blot; details: reference: MYC-CARM1 wild type; sites Y149
Sequence of UniProt Q86X55 (Q86X55 whole entry Y149F): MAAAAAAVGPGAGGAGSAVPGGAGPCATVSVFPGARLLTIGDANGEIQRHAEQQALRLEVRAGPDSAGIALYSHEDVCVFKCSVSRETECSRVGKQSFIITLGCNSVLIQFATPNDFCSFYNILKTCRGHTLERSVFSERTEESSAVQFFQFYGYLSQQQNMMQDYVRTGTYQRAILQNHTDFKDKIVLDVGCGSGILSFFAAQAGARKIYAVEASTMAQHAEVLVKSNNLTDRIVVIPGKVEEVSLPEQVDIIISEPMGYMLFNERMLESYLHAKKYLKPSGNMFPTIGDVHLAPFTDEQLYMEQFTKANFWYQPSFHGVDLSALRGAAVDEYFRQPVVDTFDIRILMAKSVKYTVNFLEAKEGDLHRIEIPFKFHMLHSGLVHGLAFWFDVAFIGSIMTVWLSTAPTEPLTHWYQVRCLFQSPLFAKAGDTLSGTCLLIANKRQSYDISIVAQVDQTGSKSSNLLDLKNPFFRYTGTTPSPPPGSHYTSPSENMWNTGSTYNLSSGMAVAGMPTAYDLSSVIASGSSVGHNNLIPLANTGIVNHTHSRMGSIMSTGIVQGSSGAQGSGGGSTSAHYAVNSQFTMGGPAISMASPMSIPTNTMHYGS

Row | binding against the reference ([1]; sites Y334) | binding against the reference [2] | binding against the reference ([1]; sites Y149) | Substance
1 | lost |  |  | CARM1 (from UniProt Q86X55) MYC-CARM1 Y334F
2 |  | weaker | lost | CARM1 (from UniProt Q86X55) MYC-CARM1 Y149F
